The record followed here is paper PMC7501309, “Structure and mechanism of a dehydratase/decarboxylase enzyme couple involved in polyketide β-methyl branch incorporation” (Scientific Reports, 2020).

This data set deals with the molecule itself. Description: SEC; analytical Superdex 200 10/60; 100 µl at 0.5 mg/ml; 50 mM Tris-HCl, 150 mM NaCl, 5% glycerol, pH 7.5 (legend: 20 mM Tris-HCl, 150 mM NaCl, pH 7.5); elution compared with standards. For orientation: SEC sorts molecules by how far they enter the pores of the column.

B1: PksH, bacillaene synthase dehydratase (wild type) (enzyme, Bacillus subtilis 168, UniProt P40805 1-259, looked up)
chain: MDLVTYQTIKVRFQASVCYITFHRPEANNTINDTLIEECLQVLNQCETSTVTVVVLEGLPEVFCFGADFQEIYQEMKRGRKQASSQEPLYDLWMKLQTGPYVTISHVRGKVNAGGLGFVSATDIAIADQTASFSLSELLFGLYPACVLPFLIRRIGRQKAHYMTLMTKPISVQEASEWGLIDAFDAESDVLLRKHLLRLRRLNKKGIAHYKQFMSSLDHQVSRAKATALTANQDMFSDPQNQMGIIRYVETGQFPWEDQ
notes: PksH of Bacillus subtilis 168, amplified from genomic DNA and cloned into pET28a (NdeI/XhoI); The His tag is thrombin cleavable (pET28a); also called WT PksH; source: E. coli BL21(DE3), purified (HisTrap, Superdex 200 SEC)
Regarding B1, the “stoichiometry N” value worked out at 3.

B2: PksI, bacillaene synthase decarboxylase (wild type) (enzyme, Bacillus subtilis 168)
chain: MTHSVVELIEIESAIIQVKMQDRTHKNAFSQELTDDLIQAFEYIRQNPKYKAVILTGYDNYFASGGTQEGLLRIQQGLTKFTDDNLYSLALDCEIPVIAAMQGHGIGGGFVMGLFADIVILSRESVYTANFMKYGFTPGMGATFIVPKKLGFSLAQEILLNAGSYRGADLEKRGVPFKVLPRAEVLDYAVELAQELAEKPRNSLVTLKDHLVAPLRDQLPRVIEQELMMHEKTFHHEEVKSRIKGLYGN
notes: PksI of Bacillus subtilis 168, amplified from genomic DNA and cloned into pOPINF; the crystal models hold residues 1-249; The His tag is 3C protease cleavable (pOPINF); also called WT PksI; source: E. coli BL21(DE3), purified (HisTrap, Superdex 200 SEC)
With B2, the “stoichiometry N” value worked out at 3.

The term stoichiometry N denotes the number of molecules, sites or subunits per partner or assembly.
